According to US7521540B2, “CYR61 compositions and methods” (Munin Corporation, priority 1996, dated 2009):

Legend:
HUVE cells = test: Gel matrix invasion and tube formation; format: cell-based, human; conditions: collagen or fibrin gels
Method: The end product of in vitro angiogenesis is a well-defined network of capillary-like tubes. When cultured on gel matrices, e.g., collagen, fibrin, or Matrigel gels, endothelial cells must first invade the matrix before forming mature vessels.
In some wells, Cyr61 was mixed into the gel matrix before gelation (final concentration 10 μg/ml), while in other wells, Cyr61 was not in the gel matrix but was added as part of the nutrient medium (similar range of concentrations as in the matrix) after the cells reached confluency. HUVE cells were seeded onto the gel matrix surface at 5×10^4 cells per well in Ham's F12K medium [GIBCO-BRL, Inc.] containing 10% fetal bovine serum, 100 μg/ml heparin, and 30 μg/ml endothelial cell growth factor. When the cells reached confluency, the medium was removed, the cells were rinsed with PBS, and fresh medium without endothelial cell growth factor was supplied. Some cultures received purified recombinant Cyr61, while others received Cyr61 and polyclonal anti-Cyr61 antibodies. […]
Invasion of the gel matrix was quantified about 4-7 days after treatment of the confluent cultures. […] Invasion was quantified by measuring the total length of all cell cords that penetrated beneath the surface monolayer. Results were expressed as the mean length in microns per field for at least 3 randomly selected fields from each of at least 3 separate experiments. […]

[1] = Sensitivity of Cyr61 cell-attachment activity to DTT, heat, acid and protease; format: physicochemical
Method: Because murine Cyr61 contains 38 cysteines in the 355 amino acid secreted portion, the contribution of disulfide bond formation to Cyr61 tertiary structure was investigated. […] However, Cyr61 was inactivated by heating at 75° C. for 5 minutes, by incubation in 100 mM HCl, or upon extensive digestion with chymotrypsin. […] In addition, Cyr61 is neither phosphorylated nor glycosylated.
Another embodiment of the invention is directed to the use of Cyr61 to mediate cellular attachment to the extracellular matrix. Induction of cellular adhesion was investigated using murine Cyr61, fibronectin, and bovine serum albumin (BSA). Immunological 96-well plates (Falcon brand) were coated with 50 μl of 0.1% BSA in PBS at 4° C. in the presence of 0-30 μg/ml concentrations of murine Cyr61 or fibronectin. After two hours exposure to the coating solution, non-diluted immune or pre-immune antisera (30 μl/well), or affinity-purified anti-Cyr61 antibodies were added. For some wells, the coating mixture was adjusted to 10 mM DTT or 100 mM HCl. After 16 hours incubation, the coating solution was removed and the well surface was blocked with 1% BSA in phosphate-buffered saline (PBS) for 1 hour at room temperature. HUVE cells were plated in Ham's complete F12K medium [GIBCO-BRL, Inc.; Ham, Proc. Natl. Acacd. Sci. (USA) 53:786 (1965)] at 5×10^3-10^4 cells/well. Cycloheximide was added to 100 μg/ml immediately before plating and monensin was added to 1 μM 14 hours before plating. After a 2-hour incubation at 37° C., the wells were washed with PBS and attached cells were fixed and stained with methylene blue. The attachment efficiency was determined by quantitative dye extraction and measurement of the extract absorbance at 650 nm. Oliver et al., J. Cell. Sci. 92:513-518 (1989).

B1: Cyr61: Cysteine-rich ECM signaling protein; murine sequence SEQ ID NO:2, recombinant from Baculovirus-infected Sf9 cells (protein, listed as Mus musculus)
chain: MSSSTFRTLAVAVTLLHLTRLALSTCPAACHCPLEAPKCAPGVGLVRDGCGCCKVCAKQLNEDCSKTQPCDHTKGLECNFGASSTALKGICRAQSEGRPCEYNSRIYQNGESFQPNCKHQCTCIDGAVGCIPLCPQELSLPNLGCPNPRLVKVSGQCCEEWVCDEDSIKDSLDDQDDLLGLDASEVELTRNNELIAIGKGSSLKRLPVFGTEPRVLFNPLHAHGQKCIVQTTSWSQCSKSCGTGISTRVTNDNPECRLVKETRICEVRPCGQPVYSSLKKGKKCSKTKKSPEPVRFTYAGCSSVKKYRPKYCGSCVDGRCCTPLQTRTVKMRFRCEDGEMFSKNVMMIQSCKCNYNCPHPNEASFRLYSLFNDIHKFRD
With B1 the “matrix invasion and tube formation” value (HUVE cells) was “induce matrix invasion and tube formation”, the “ability to mediate cell attachment after treatment” value ([1]; 10 mM dithiothreitol (DTT), 16 hours) was “did not affect the ability of Cyr61 to mediate cell attachment” and the activity after heating ([1]; 75° C. for 5 minutes) was “inactivated”. The activity after protease ([1]; extensive digestion with chymotrypsin) was “inactivated” and the activity after acid ([1]; incubation in 100 mM HCl) was “inactivated”.
